Experiments:
NGF = assay: cell-based or functional assay
FGFR3 = assay: cell-based or functional assay

Chain of NGF (P01138 122-241): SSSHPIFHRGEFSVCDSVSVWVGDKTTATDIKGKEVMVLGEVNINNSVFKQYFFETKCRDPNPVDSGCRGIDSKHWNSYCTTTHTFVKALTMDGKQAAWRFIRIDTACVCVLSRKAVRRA

| anti-NGF IC50 (nM), U2OS TrkA_p75 assay; construct from HEK293 (NGF) [nM] | FGF18 EC50 (nM), BaF3/FGFR3 assay; construct from HEK293 (FGFR3) [nM] | Binder |
| --- | --- | --- |
| 0.62 | 0.06 | FGF18_scFv fasinumab (LH) (other) EENVDFRIHVENQTRARDDVSRKQLRLYQLYSRTSGKHIQVLGRRISARGEDGDKYAQLLVETDTFGSQVRIKGKETEFYLCMNRKGKLVGKPDGTSKECVFIEKVLENNYTALMSAKYSGWYVGFTKKGRPRKGPKTRENQQDVHFMKRYPKGQPELQKPFKYTTVTKGGGGSGGGGSGGGGSDIQMTQSPSSLSASAGDRVTITCRASQAIRNDLGWYQQKPGKAPKRLIYAAFNLQSGVPSRFSGSGSGTEFTLTISSLQPEDLASYYCQQYNRYPWTFGQGTKVEIKGGGGSGGGGSGGGGSQVQLVQSGAEVKKPGASVKVSCKVSGFTLTELSIHWVRQAPGKGLEWMGGFDPEDGETIYAQKFQGRVTMTEDTSTDTAYMELTSLRSEDTAVYYCSTIFGVVTNFDNWGQGTLVTVSS |
| 0.43 | 0.16 | FGF18_scFv tanezumab (LH) (other) EENVDFRIHVENQTRARDDVSRKQLRLYQLYSRTSGKHIQVLGRRISARGEDGDKYAQLLVETDTFGSQVRIKGKETEFYLCMNRKGKLVGKPDGTSKECVFIEKVLENNYTALMSAKYSGWYVGFTKKGRPRKGPKTRENQQDVHFMKRYPKGQPELQKPFKYTTVTKGGGGSGGGGSGGGGSDIQMTQSPSSLSASVGDRVTITCRASQSISNNLNWYQQKPGKAPKLLIYYTSRFHSGVPSRFSGSGSGTDFTFTISSLQPEDIATYYCQQEHTLPYTFGQGTKLEIKGGGGSGGGGSGGGGSQVQLQESGPGLVKPSETLSLTCTVSGFSLIGYDLNWIRQPPGKGLEWIGIIWGDGTTDYNSAVKSRVTISKDTSKNQFSLKLSSVTAADTAVYYCARGGYWYATSYYFDYWGQGTLVTVSS |

— patent US20200299347A1 (Merck KGaA, published 2020)
